Assay results reported in patent US6319893A, “Raising blood sugar level in hypoglycemic mammals by administering inhibitors of dipeptidyl peptidase IV” (Probiodrug, priority 1998, dated 2001).

Columns and labels:
[1] = target: DP IV (Homo sapiens, UniProt P27487); test: MALDI-TOF mass spectra of glucagon solution incubated with DP IV; assay type: biochemical; conditions: 0.14 mmol glucagon solution, 40 mmol TRIS/HCL pH=7.6, 40 nmol DP IV; FIG. 1
[2] = target: T1, serum DP IV (Homo sapiens, UniProt P27487); test: MALDI-TOF mass spectra of a glucagon-serum mixture, serum DP IV-catalysed glucagon cleavage; assay type: biochemical; conditions: no inhibitor, FIG. 2 A
T1 construct: from tissue; host or cells: serum
Text: Inhibition of Serum DP IV-catalysed Glucagon Cleavage by the DP IV Inhibitor Isoleticyl-thiazolidine

Chain of DP IV (P27487 whole entry): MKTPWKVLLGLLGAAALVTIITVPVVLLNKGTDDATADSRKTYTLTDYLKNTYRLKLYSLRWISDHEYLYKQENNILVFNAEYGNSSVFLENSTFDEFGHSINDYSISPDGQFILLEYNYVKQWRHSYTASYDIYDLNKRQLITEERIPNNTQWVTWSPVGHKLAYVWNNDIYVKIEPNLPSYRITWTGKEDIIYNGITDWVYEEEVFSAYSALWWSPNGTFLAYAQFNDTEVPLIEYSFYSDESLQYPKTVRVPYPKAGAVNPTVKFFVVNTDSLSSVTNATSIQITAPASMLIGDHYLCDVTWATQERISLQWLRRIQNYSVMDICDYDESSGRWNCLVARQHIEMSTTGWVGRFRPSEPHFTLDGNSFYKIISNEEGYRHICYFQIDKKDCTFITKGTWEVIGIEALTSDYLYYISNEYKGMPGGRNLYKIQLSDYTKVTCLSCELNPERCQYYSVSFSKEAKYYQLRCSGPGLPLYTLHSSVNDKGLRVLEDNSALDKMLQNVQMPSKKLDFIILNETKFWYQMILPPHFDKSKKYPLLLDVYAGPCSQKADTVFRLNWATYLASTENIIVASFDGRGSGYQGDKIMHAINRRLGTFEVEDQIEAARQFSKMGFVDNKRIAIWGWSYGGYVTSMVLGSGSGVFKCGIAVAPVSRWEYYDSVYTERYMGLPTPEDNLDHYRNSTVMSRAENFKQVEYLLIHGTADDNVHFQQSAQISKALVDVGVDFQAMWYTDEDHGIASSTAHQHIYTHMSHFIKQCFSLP
T1 sequence (P27487 39-766 limits assumed): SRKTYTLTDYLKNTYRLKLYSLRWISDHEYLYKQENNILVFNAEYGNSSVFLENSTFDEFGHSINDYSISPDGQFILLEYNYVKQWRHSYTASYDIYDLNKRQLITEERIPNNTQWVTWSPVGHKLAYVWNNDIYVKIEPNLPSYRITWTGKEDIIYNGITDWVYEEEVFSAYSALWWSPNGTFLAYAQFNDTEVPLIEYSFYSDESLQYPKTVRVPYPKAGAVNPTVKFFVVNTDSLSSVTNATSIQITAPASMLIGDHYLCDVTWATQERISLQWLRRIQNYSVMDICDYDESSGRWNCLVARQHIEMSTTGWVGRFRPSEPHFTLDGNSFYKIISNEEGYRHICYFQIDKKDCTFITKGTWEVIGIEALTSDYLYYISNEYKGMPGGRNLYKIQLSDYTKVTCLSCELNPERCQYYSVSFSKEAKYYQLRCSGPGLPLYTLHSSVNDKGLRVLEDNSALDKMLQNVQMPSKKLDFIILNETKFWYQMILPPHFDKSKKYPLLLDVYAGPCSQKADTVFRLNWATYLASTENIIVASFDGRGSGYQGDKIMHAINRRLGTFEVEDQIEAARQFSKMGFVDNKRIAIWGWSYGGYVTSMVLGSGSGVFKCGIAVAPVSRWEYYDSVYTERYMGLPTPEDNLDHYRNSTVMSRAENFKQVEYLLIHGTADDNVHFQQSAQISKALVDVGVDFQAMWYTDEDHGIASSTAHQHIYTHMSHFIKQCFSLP

glucagon
cleavage of glucagon by DP IV (MALDI-TOF) [1]: removal of the dipeptides His-Ser and Gln-Gly occurs sequentially depending upon the incubation time
hydrolysis of glucagon by serum DP IV (MALDI-TOF) [2]: serum-DP IV hydrolyses glucagoni
